The results in this text go back to US11667697 (VANDERBILT UNIVERSITY, dated 2023).

In experiment [1] the target is T1, VACV B5 protein (vaccinia virus, UniProt Q01227 20-275). In words: lysate ELISA. Background: An ELISA detects its analyte on a solid surface through an enzyme-linked reagent.
Experiment [2] addresses CPXV ortholog of B5 (cowpox virus). Briefly: lysate ELISA.
The target of a further experiment is MPXV ortholog of B5 (monkeypox virus). In words: lysate ELISA.
Experiment [3] concerns the target T1, VACV B5 protein. In words: purified antigen ELISA.
The next experiment deals with VARV ortholog of B5 (variola virus). Briefly: purified antigen ELISA.
The target in experiment [4] is T1, VACV B5 protein. Briefly: cell-based or functional assay.
In experiment [5] the target is CPXV ortholog of B5 (cowpox virus). Briefly: cell-based or functional assay.
For experiment [6], the target named is T2, VACV D8 protein (vaccinia virus, UniProt P04195 1-261).
T2 sequence: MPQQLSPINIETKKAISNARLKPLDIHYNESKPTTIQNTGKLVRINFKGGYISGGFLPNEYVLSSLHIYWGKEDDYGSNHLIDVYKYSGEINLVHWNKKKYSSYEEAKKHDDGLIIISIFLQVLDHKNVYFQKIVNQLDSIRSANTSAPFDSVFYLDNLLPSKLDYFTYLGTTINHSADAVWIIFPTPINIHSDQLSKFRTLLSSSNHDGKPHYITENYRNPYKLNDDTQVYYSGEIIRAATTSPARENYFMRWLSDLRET
Briefly: lysate ELISA.

The target in experiment [7] is T2, VACV D8 protein. In words: purified antigen ELISA.
In experiment [8] the target is T2, VACV D8 protein. In words: cell-based or functional assay.
For experiment [9], the target named is T2, VACV D8 protein. In words: antigen ELISA/array/BLI.
Experiment [10] addresses T3, VACV L1 protein (vaccinia virus, UniProt P07612 1-185).
T3 sequence: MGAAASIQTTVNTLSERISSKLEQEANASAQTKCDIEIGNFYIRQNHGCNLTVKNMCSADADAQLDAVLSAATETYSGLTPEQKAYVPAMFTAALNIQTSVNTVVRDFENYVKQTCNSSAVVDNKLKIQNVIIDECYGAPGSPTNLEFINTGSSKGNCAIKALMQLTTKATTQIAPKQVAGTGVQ
In words: lysate ELISA.

The target of experiment [11] is T3, VACV L1 protein. In words: purified antigen ELISA.
Experiment [12] addresses T3, VACV L1 protein. In words: cell-based or functional assay.
For experiment [13], the target named is T4, VACV H3 protein (vaccinia virus, UniProt P07240 1-278).
T4 sequence: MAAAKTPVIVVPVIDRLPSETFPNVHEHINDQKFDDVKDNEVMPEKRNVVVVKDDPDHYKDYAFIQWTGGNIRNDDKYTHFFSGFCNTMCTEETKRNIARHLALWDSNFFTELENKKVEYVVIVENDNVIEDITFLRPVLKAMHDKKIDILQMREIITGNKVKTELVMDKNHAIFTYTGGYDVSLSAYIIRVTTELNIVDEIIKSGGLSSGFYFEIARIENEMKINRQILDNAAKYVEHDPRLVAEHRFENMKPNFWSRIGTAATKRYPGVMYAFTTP
Briefly: lysate ELISA.

Experiment [14] concerns the target T4, VACV H3 protein. Briefly: purified antigen ELISA.
In experiment [15] the target is T4, VACV H3 protein. In words: cell-based or functional assay.

B1: MPXV-92 (antibody)
chain 1: QVQLVESGPGLVKPSGTLSLTCAVSGGSISSSNWWSWVRQPPGKGLEWIGEIYHSGSTNYTPSLKSRVTISLDKSKNQFSLKLSSVTAADTAMYYCARNFYPGYLQYWGQGTLVTVSS
chain 2: QSALTQPASVSGSPGQSITISCTGTISDVGGYNYVSWYQQHPGKAPKLMIYDVNKRPSGVSNRFSGSKSGNT
A word on the EC50: it is the concentration that produces a half-maximal response. A high value points to lower potency in that assay. For the molecule B1, the EC50 with VACV B5 protein [1] was 0.064 mg/L; in the experiment with CPXV ortholog of B5 [2], 0.014 mg/L; with MPXV ortholog of B5, 0.046 mg/L; with VACV B5 protein [3], 0.7 mg/L; with VARV ortholog of B5 it was 1.2 mg/L. Besides, in the experiment with VACV B5 protein [4], the “PRNT Emax, VACV EV+C'” value is 86%. Besides, the “PRNT IC50, VACV EV+C'” value in the experiment with VACV B5 protein [4] was 0.08 mg/L. Moreover, the “PRNT IC50, CPXV EV+C'” value with CPXV ortholog of B5 [5] is 0.5 mg/L.

B2: VACV-304 (antibody, V domains shown)
VH: EVQLVESGGGLVQPGGSLRLSCVVSGFTFSNYWMSWVRQAPGKGLEWVANIKQDGSKKYYVDSVTGRFTISRDNAKNSLYLQMNSLRAEDTAVYYCATLNLELAVDAISEALKWGQGTLVTVSS
VL: SYELTQPPSVSVSPGQTARITCSGDALPKQFAYWYQQKPGQAPVVMIYKDSERPSGIPERFSGSSSGTTVTLTISGVQAEDEADYYCQSVDNSGTYEVFGGGTQLTVL
notes: human IgG1, anti-D8
Consider B2, for which the values for the EC50 in the experiment with VACV D8 protein [6] and with VACV D8 protein [7] were 0.04 mg/L and 0.05 mg/L, respectively. In the experiment with VACV D8 protein [8], the “PRNT Emax, VACV MV+C'” value worked out at 69%. In the experiment with VACV D8 protein [8], the “PRNT IC50, VACV MV+C'” value was found to be 0.02 mg/L.

B3: VACV-77 (antibody, V domains shown)
VH: QVQLQESGPGLVKPSETLSLTCTVSGGSMSSYFWSWIRQPPGKGLEWIGYISYSGGTNYNPSLKSRVTISVDTSKNQFSLKLTSVTAADTAVYYCAREDRGSPDYWGQGTLVTVSS
VL: QSVLTQPPSVSAAPGRKVTISCSGSSSNIGNNYVSWYQQLPGTAPKLLIYDNYKRPSGIPDRFSGSKSGTSATLGITGLQTGDEADYYCGTWDLSLSAGVFGGGTKLTVL
As to B3, the binding result with VACV D8 protein [9] is given as “binds”.

B4: MPXV-87 (antibody, V domains shown)
V domain 1: QVQLVQSGAEVKKPGASVKVSCKASGYTFTSHGIIWVRQAPGQGLEWMGWISVYNDNTNSAQKFQDRVTMTTATSTSTAYMELRSLRSDDTAVYYCARSSSGPRYYYYGMDVWGQGTTSP
V domain 2: QSVVTQPPSVSGAPGQRVTISCTGSSSNIGAGYAVHWYYQLPGIAPKLLIFGNNNRPSGVPDRFSGSKSGTSASLAITGLQAEDEADYYCQSYDSSLSGWVFGGGTQVTVL
notes: human IgG1, anti-L1
The molecule B4 registered an EC50 with VACV L1 protein [10] of 0.01 mg/L. The molecule also registered an EC50 in the experiment with VACV L1 protein [11] of 0.3 mg/L. Also, in the experiment with VACV L1 protein [12], the “PRNT Emax, VACV MV” value was 61%; the “PRNT Emax, VACV MV+C'” value came to 72%; the “PRNT IC50, VACV MV” value is 5 mg/L; the “PRNT IC50, VACV MV+C'” value was determined as 0.8 mg/L.

B5: VACV-314 (antibody, V domains shown)
VH: QVQLVQSGPGLVKPSETLSLTCTVSGGSISSYYWSWIRQPPGKGLEYIGHIYYSGGTKYNPSLRSRVTISVDTSKNQFSLKLTSVTAADTAVYYCARLAGRKPDADSWGQGTLVTVSS
VL: QPVLTQEPSLTVSPGGTVTLTCASSTGAVTSGFFPNWLQQKPGQAPRALIYSTNNKHSWTPARFSGSLLGGKAALTLSGVQPEDEAEYYCLLYYGGVVVFGGGTKLTVL
notes: human IgG3, anti-H3
B5: the EC50 with VACV H3 protein [13] was found to be 0.003 mg/L. In the experiment with VACV H3 protein [14], this molecule gave an EC50 of 0.1 mg/L. In addition, in the experiment with VACV H3 protein [15], the “PRNT Emax, VACV MV+C'” value was determined as 74% and the “PRNT IC50, VACV MV+C'” value was 0.1 mg/L.

B6: VACV-315 (antibody, V domains shown)
VH: EVQLLESGGGLVQPGGSLKLSCAASGFIFSNYAMGWVRQAPGKGLEWVSALSASDGVTSYADSVKGRFTISRDNSKNTMYLQMNRLRTEDTAIYFCAKGRARVNNIYRYFDHWGQGTLVTVSS
VL: QSVLTQPASVSGSPGQSITISCTGTSSDVGAYTFVSWYQHHPGKAPKLIIYEVSNRPSGVSDRFSGSKSGNTASLTISGLQAEDEADYYCNSYTTTSPWVFGGGTQLTVL
notes: human IgG1, anti-H3
As to B6, the midpoint of the response with VACV H3 protein [13], the EC50, lay at 0.002 mg/L. This molecule gave an EC50 with VACV H3 protein [14] of 0.2 mg/L. In the experiment with VACV H3 protein [15], the “PRNT Emax, VACV MV+C'” value amounted to 72% and the “PRNT IC50, VACV MV+C'” value came to 2.2 mg/L.

B7: MPXV-79 (antibody, V domains shown)
VH: QVQLVQSGAEVKKPGASVKVSCKASGYSFRSNGISWVRQAPGQGFEWLGWIAAYNGDTKYVQKFQGRLTMTTDTSTDTAYMELWSLRSDDTAVYYCARDPKLGRKGSAFDIWGQGTLVIVSS
VL: EIVLTQSPATLSLSPGGRATLSCRASQSVGNYLTWYQQKPGQAPRLLIFDGSTRATGIPARFSGSGSGTDFTLTISSLEPEDFAVYYCLQRSDLYTFGQGTKVDIK
notes: human IgG1, anti-H3
With B7, the results for the EC50 with VACV H3 protein [13] and with VACV H3 protein [14] were 0.004 mg/L and 0.06 mg/L, respectively. Further, the “PRNT Emax, VACV MV+C'” value in the experiment with VACV H3 protein [15] was 62%. The “PRNT IC50, VACV MV+C'” value in the experiment with VACV H3 protein [15] turned out to be 4.7 mg/L.
